The target of the assay is Caenorhabditis elegans leucine-rich-repeat-containing GPCR (CeLGR), residues Gln31 to Arg712 (Caenorhabditis elegans) (UniProt G5EG04). The assay is described as follows: MST.

“C. elegans α2/β5 heterodimeric hormone (Ceα2β5) (from UniProt A7DT38 20-125) (complex)”: the Kd turned out to be 153 nM. In other words, the sub-micromolar range.

These data come from PMC11722252.
